This assay deals with T1, insulin-like growth factor I (IGF-I) (human, UniProt P05019 49-118, 125I-labelled in the ligand blots, affinity cross-linking and solution binding assay; unlabelled in BIAcore).
T1 construct: Human is stated only for the BIAcore material (rhIGF-I); also called rhIGF-I
Nature of the assay: dot ligand blot: E. coli GST-fusion lysate dotted on nitrocellulose, probed with 125I-IGF-I; anti-GST dot immunoblot as loading control. How it is done:
For dot blots, 2.5 μl of sample were dotted directly onto the nitrocellulose membrane. The membranes were then blocked for 1 h at 21° C. in 4% milk/TBS-T, followed by an overnight incubation at 4° C. with anti-IGFBP-3 monoclonal antibody (Diagnostic Systems Laboratories, Inc., Webster, Tex.), anti-GST polyclonal antibody (Amersham Pharmacia Biotech, Piscataway, N.J.), anti-PY20 monoclonal antibody (Santa Cruz Biotech, Santa Cruz, Calif.), or anti-IRS-1 polyclonal antibody (Upstate, Lake Placid, N.Y.), all at 1:3000 dilutions. Membranes were washed with TBS-T and incubated for 1 h at 21° C. with a 1:3000 dilution of horseradish peroxidase-linked antirabbit or antimouse IgG secondary antibodies (Amersham Pharmacia Biotech, Piscataway, N.J.). Proteins were detected by enhanced chemiluminescence reagents, according to the manufacturer's protocol (NEN Life Science Products, Boston, Mass.).
Lane 1, ⁽¹⁻⁴⁶⁾IGFBP-3; lane 2, ⁽¹⁻⁷⁵⁾IGFBP-3; lane 3, ⁽¹⁻⁸⁰⁾IGFBP-3; lane 4, ⁽¹⁻⁸⁷⁾IGFBP-3; lane 5, full-length IGFBP-3; lane 6, pGEX4T-1 vector alone. The binding of these IGFBP-3 “deletion” fragments to [¹²⁵I]-IGF-I is shown, along with wild-type IGFBP-3 binding, and control vector (pGEX4T-1) to [¹²⁵I]-IGF-I. For each protein sample, the protein extract was directly pipetted onto nitrocellulose paper, incubated in 1% BSA with [¹²⁵I]-IGF-I, and then exposed to film. […]

We go through 1 molecule from patent publication US20090253152A1 (OREGON HEALTH AND SCIENCE UNIVERSITY, published 2009).

Ends that are not written are not given here.

T1 sequence (P05019 49-118 limits assumed): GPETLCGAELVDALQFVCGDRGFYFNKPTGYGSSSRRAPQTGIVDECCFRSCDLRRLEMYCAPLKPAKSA

B1: (1-46)IGFBP-3 FLAG-tagged fragment, GST-fusion (E. coli) (other, human)
chain: GASSAGLGPVVRCEPCDARALAQCAPPPAVCAELVREPGCGCCLTCDYKDDDDK
modifications: cysteine pairing not given here; also: GST fusion with the vector's linker, linker sequence and fusion end not given here
notes: range 1-46; Tested as crude E. coli cell lysate; not shown: glutathione S-transferase encoded by vector pGEX4T-1, with the vector's linker
Turning to B1, the binding result is listed as “no binding”.
